A short description of this series: label from the status in PepcDB records.
“MRKLDICIKSGLHFRTHRQHPDDDSVKTLTLECVDPQMVPVPRHWGRLAHRLLERAMTQATRPLPPPDGMGPTYRKILWRLIPFLFVCNLFNYLDRVNVGFAKLQMLRDLGMSQTVYGLGAGIFFIGYLACGVPSNLILQRIGARRWVAIMMVSWGLLSTCLLFVRTPAGFYTLRLLTGAAEAGFFPGILLYLTRWFPRDRHGRVTTVFMSAIPISGVLGGPLSGWILGYFSAGQGGLAGWQWMFLLQGLPTVLLGNGVWFLLSDGVQEASWLNPQEKQALARVLADDEAGKPAGASTSLRAVLCNPAVWLLGTVYFCIQSGVYAINFWLPSIIQDSGVTDPVRIGLMSAIPYLAAAVFMVLMGRSADRRGERRWHLVIPLLMGAAGLCIAASVTDNLGLALFGMTLATMGAVSGLPLFWPLTNGFLTAAAAAGGLALINSTGQVAGFVSPYLVGWIKDTTHSTQLALYVLAGAMLLGAALVLRVPACAVNQ”: the protein production result was “failed”.
As to “MRKLISIFLILCTFLLCGCSDVKHELNRLSLVLCSGIDLSEDGRYIYTVEILNVGASSPQSSGKQGASPSINVFSSEGHTITEAFNNASVLSGEPLFFAHSRMVVVGERLAKYGLSDMMDKLFRHYTIRPDGLIFVTKGNARDIVSTYTPDQPLPAEKLRTMSMLQEMTGYSISYSRLDLVKALTSKSHAGAIGLISLRPDQKFSNRFNMYGAGVFKKDKLVGYLDTYETRGLQWVTGHISSGSILVPLPDGKRIVFDIIDSKSKIKTKVNGNKLTMEINVAEESLISETNDKTNVMKHYKEMNKLAKLESEAIKKEVSSALAASQDRLKTDIFGFGSEIYRDNPKYWKTVENNWDNIFPNVNVKINVKCIVRRPGLTSQPII”, the protein production result is “failed”.
As for “MRKLRKLLLFSTVLFVVFTQLFGFIITVDAAETATINLSAEKQVIRGFGGMNHPVWISDLTPQQRDTAFGNGEGQLGFTILRIHVDENRNNWSKEVATARRAIELGAIVFASPWNPPSNMVETFTRNGVPNQKRLRYDKYGDYVQHLNDFVAYMKSNGVDLYAISVQNEPDYAHEWTWWTPQEMLRFMRDYAGQINCRVMAPESFQYLKNMSDPILNDPQALANLDILGAHFYGTTVNNMPYPLFEQKGAGKELWMTEVYVPNSDSNSADRWPEALEVAHNMHNALVEGNFQAYVWWYIRRSYGPMKEDGTISKRGYMMAHYSKFVRPGYVRVDATKNPTYNVYLSAYKNKKDNSVVAVVINKSTEAKTINISVPGTSIRKWERYVTTGSKNLRKESDINASGTTFQVTLEPQSVTTFVGGGSSEPQIPVERNAFSKIECEEYNATNSSTVQVVGTGTGSGLGYIENGNYFAYKNINFGNGANSFKIRAATTGTPKIEIRLGSPTGTLAGTLQVAATGGFNAYEEQSCSINKITGVQDVYLVFGGAVNVDWFTFESKQEPTFKYGDLNGDGNVNSTDSTLMSRYLLGIITTLPAGEKAADLNGDGKVNSTDYNILKRYLLKYIDKFPVES”, the entry is “failed”; as for “MRKLTALFVASTLALGAANLAHAADTTTAAPADAKPMMHHKGKFGPHQDMMFKDLNLTDAQKQQIREIMKGQRDQMKRPPLEERRAMHDIIASDTFDKVKAEAQIAKMEEQRKANMLAHMETQNKIYNILTPEQKKQFNANFEKRLTERPAAKGKMPATAELEHHHHHH”, “not failed”; as for “MRKNDIADISPRDPMLALVLLTRLPLPALPEAAFARQAAAVWAFPLAGLAVGALAWATGALALAAGLAPVAVAGLMLVVLVMTTGGMHEDGLADTADGLWGGFTPERRLEIMKDSHIGTYGVLALILSQGLRLAALSALVAGGALGAAVAAAVWSRALMPVLMAALPNARGTGLSQSVGRPTPQAVTLGLGLAAVLALLLAGWAVLIPALLAVLSVLGLAALARAKIGGQTGDILGAAQQLAEITCLLALSAAL”, “failed”.
As for “MRKPIEHTADIAYEISGNSYEELLEEARNILLEEEGIVLDTEEKEKMYPLEETEDAFFDTVNDWILEISKGWAPWRIKREGNELKVTFRKIRKKEGTEIKALTYHLLKFERDGDVLKTKVVFDT”, the entry is “not failed”.
As for “MRKRIEWIDIAKGSAILAVVIGHTLGPYNGQFFGSLIFAFHMPIFFMLSGYLYRSRPARQECQRGIINLLLPYLATAVVLLVVSAIARLLPNPLLNAYFPSWRQGLIATAYGAGSAVFNPWHWQVQPIGAVWFLLSMFIALQLFNGVMLLTARRHQRWRQAIVRGGVFAIFAILGGWLGHAAYLPWAVNAALLAQLFLYAGYLVKQTALLSRISSAWYLLFTFMWLVSAFQGYFALTVPTSPNLLISVMGGVAGSLCIIRVSDWLSHYPNARPIKWLKRYGQLSLVVLCFHLIDLNVIGIEGWLTNHLITHMGPLVTTIIAISYRIGFVTVAMLAIPHLPGIRACFLPRQYLFRRLQRR”, the entry is “failed”.

The values above are taken from a protein production outcome set (Wang et al. 2014).
